Data set [1] concerns the target T1, recombinant human tissue transglutaminase (human, UniProt P21980 1-687, limits assumed).
T1 construct: also called tTGase; tTG
T1 sequence (looked up): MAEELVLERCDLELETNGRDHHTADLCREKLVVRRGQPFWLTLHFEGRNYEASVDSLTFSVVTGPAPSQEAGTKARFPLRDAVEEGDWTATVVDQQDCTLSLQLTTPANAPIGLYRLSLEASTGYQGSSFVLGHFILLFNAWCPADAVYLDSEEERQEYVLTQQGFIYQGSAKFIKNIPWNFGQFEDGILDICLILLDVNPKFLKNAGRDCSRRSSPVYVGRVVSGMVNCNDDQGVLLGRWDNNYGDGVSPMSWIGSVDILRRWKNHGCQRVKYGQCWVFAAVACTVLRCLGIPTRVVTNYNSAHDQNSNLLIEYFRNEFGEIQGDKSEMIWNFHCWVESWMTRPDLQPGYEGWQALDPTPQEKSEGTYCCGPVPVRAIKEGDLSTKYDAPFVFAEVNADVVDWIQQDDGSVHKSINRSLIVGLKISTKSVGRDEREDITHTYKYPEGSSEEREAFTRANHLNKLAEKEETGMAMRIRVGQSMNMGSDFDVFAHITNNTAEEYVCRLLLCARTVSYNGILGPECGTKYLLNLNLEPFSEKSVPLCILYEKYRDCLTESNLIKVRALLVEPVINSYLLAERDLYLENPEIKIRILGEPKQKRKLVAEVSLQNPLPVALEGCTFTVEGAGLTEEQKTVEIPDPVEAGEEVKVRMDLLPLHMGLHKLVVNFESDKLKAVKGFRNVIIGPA
As to the kind of experiment: time-dependent inactivation of tTG (9 uM) by 0-600 uM inhibitor; residual activity by glutamate dehydrogenase-coupled assay at 340 nm; double-reciprocal plot.

Data set [2] concerns the target T1, recombinant human tissue …. The experiment in a line: time-dependent inactivation of tTG; residual activity by glutamate dehydrogenase-coupled assay at 340 nm; double-reciprocal plot.
Data set [3] addresses T2, Ac-PQPQLPF-NH2.
T2 chain: PQPQLPF

The target in data set [4] is T3, PQPQLPY.
T3 chain: PQPQLPY

*1 amine or outer side, *2 acyl side, *3 side chain or, on linkers, in order; H or OH if unused. Where no end group is shown, it is not given here. [ ]: non-standard residue; d: D form. Aci = acivicin, (2S)-amino[(5S)-3-chloro-4,5-dihydroisoxazol-5-yl]acetic acid, O=C([C@@H](N[*:1])[C@@H]1CC(Cl)=NO1)[*:2]; DON = [N-]=[N+]=CC(=O)CC[C@H](N)C(=O)O

B1: Pro-Gln-Pro-Aci-Leu-Pro-Tyr (peptide)
peptide: PQP[Aci]LPY
notes: Free termini; also called PQPAciLPY; PQP-X-LPY with X = Aci
For the molecule B1, the Ki in data set [1] came to 780 µM.

B2: Ac-Pro-Gln-Pro-Don-Leu-Pro-Phe-NH2 (peptide)
peptide: Ac-PQP[DON]LPF-NH2
SMILES: CC(=O)N1CCC[C@H]1C(=O)N[C@@H](CCC(N)=O)C(=O)N1CCC[C@H]1C(=O)N[C@@H](CCC(=O)C=[N+]=[N-])C(=O)N[C@@H](CC(C)C)C(=O)N1CCC[C@H]1C(=O)N[C@@H](Cc1ccccc1)C(N)=O
notes: here X = DON; also called Ac-PQP-X-LPF-NH2 with X = DON; compound 41
For the molecule B2, the Ki in data set [2] amounted to 0.07 µM.

B3: recombinant human tissue transglutaminase (protein)
chain: MAEELVLERCDLELETNGRDHHTADLCREKLVVRRGQPFWLTLHFEGRNYEASVDSLTFSVVTGPAPSQEAGTKARFPLRDAVEEGDWTATVVDQQDCTLSLQLTTPANAPIGLYRLSLEASTGYQGSSFVLGHFILLFNAWCPADAVYLDSEEERQEYVLTQQGFIYQGSAKFIKNIPWNFGQFEDGILDICLILLDVNPKFLKNAGRDCSRRSSPVYVGRVVSGMVNCNDDQGVLLGRWDNNYGDGVSPMSWIGSVDILRRWKNHGCQRVKYGQCWVFAAVACTVLRCLGIPTRVVTNYNSAHDQNSNLLIEYFRNEFGEIQGDKSEMIWNFHCWVESWMTRPDLQPGYEGWQALDPTPQEKSEGTYCCGPVPVRAIKEGDLSTKYDAPFVFAEVNADVVDWIQQDDGSVHKSINRSLIVGLKISTKSVGRDEREDITHTYKYPEGSSEEREAFTRANHLNKLAEKEETGMAMRIRVGQSMNMGSDFDVFAHITNNTAEEYVCRLLLCARTVSYNGILGPECGTKYLLNLNLEPFSEKSVPLCILYEKYRDCLTESNLIKVRALLVEPVINSYLLAERDLYLENPEIKIRILGEPKQKRKLVAEVSLQNPLPVALEGCTFTVEGAGLTEEQKTVEIPDPVEAGEEVKVRMDLLPLHMGLHKLVVNFESDKLKAVKGFRNVIIGPA
By KM is commonly meant the substrate concentration at which the rate is half of its maximum. Broadly, the kcat is the maximal rate divided by the concentration of active sites. Take B3: in data set [3], the KM turned out to be 400 µM, the kcat came out at 0.667 s⁻¹ and the kcat/KM worked out at 97000 min^-1M^-1. Moreover, in data set [4], the KM turned out to be 300 µM and the kcat worked out at 0.467 s⁻¹.
